Source: patent US20160060360A1

Columns and labels:
[1] = target: FcγRIIaR; test: SPR
[2] = target: FcγRIIIaF; test: SPR
[3] = target: recombinant human FcγRIIb protein (R&D Systems) (human) (UniProt P31994); test: Biacore, 'according to the data herein'
[4] = target: recombinant human FcγRIIb protein (R&D Systems) (human) (UniProt P31994); test: SPR (Biacore 3000), antibody captured on protein A/G chip, FcγR injected, 1:1 Langmuir fit

Chain of recombinant human FcγRIIb protein (R&D Systems) (human) (P31994 46-217 limits assumed): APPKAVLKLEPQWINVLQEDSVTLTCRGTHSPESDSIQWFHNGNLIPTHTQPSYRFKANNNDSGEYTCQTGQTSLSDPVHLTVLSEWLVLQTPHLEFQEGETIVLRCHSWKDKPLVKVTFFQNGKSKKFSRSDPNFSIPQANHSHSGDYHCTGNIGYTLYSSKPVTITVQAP

Kd [1] [nM]	Substance	also measured
536	A327D	–
2690	A327G	–
1410	A327N	–
1350	A327Q	–
2790	D265E	–
205	H268D	–
269	H268E	–
481	H268N	–
544	H268Q	–
166	L328F	Kd [2]: 5110 nM
10000	P329E	–
2.06	S239D/S267E/L328F	–
1250	S239E	–
990	S239N	–
1010	S239Q	–
200	S267A	–

Kd [1] [nM]	Substance	also measured
95.5	S267D	–
29.1	S267E	–
51.3	S267E/A327D	–
29.3	S267E/A327E	–
20.6	S267E/H268E	–
3.4	S267E/H268E/L328F	–
185	S267E/L328H	–
11.6	S267E/L328I	–
7.06	S267E/L328Y	–
20.7	S267E/N325L	–
517	S267G	–
592	S298D	–
1220	V266D	–
274	V266M	–
28	V266M/S267E	–
–	anti-CD19 antibody HuAM4G7, WT (native) IgG1	Kd [3]: 2000 nM; Kd [4]: 1800 nM
